Values joined by “and” are separate entries in the source; they are usually repeats but may differ in a detail not shown here. Identical values can stand only once. Like-named read-outs stand apart in the source and are kept apart here.
How the values were obtained:
[1] = parameters: method as in PMID 30608664; conditions: 177Lu-labeled; 24 h incubation, human blood plasma; reported previously; cited from earlier work
[2] = system: xenografts of A431-CCK2R cells; assay: biodistribution in mice with CCK2R-positive xenografts; format: in vivo, female CD1-nu mice
Method: (§1) Procedures for biodistribution studies with ^177Lu-labeled conjugates (10 pmol, 100 µL, 0.1 µM in PBS, 0.5 MBq, 1 µg/kg) in female CD1-nu mice with xenografts of A431-CCK2R cells at 1, 4, and 24 h p.i., as well as blocking experiments at 4 h p.i. with a 6000-fold excess of minigastrin have been reported previously and were followed without modifications. Statistical analysis was performed via GraphPad Prism using two-sided analysis of variance. n = 4 animals per group.

[3] = as above; format: in vivo, female CD1-nu mice; conditions: female, CD1-nu, mouse, in vivo, total radioactivity; for tissue uptake at 1 h: 1 h p.i.; for tissue uptake at 24 h: 24 h p.i.
Method: as §1

[4] = parameters: method as in PMID 30608664; conditions: 177Lu-labeled; mouse blood, 10 min p.i.; reported previously; cited from earlier work
[5] = 10 pmol, read-out: Heart uptake
[6] = 10 pmol, read-out: Intestines uptake
[7] = 10 pmol, read-out: Kidneys uptake
[8] = 10 pmol, read-out: Liver uptake
[9] = 10 pmol, read-out: Pancreas uptake
[10] = 10 pmol, read-out: Spleen uptake
[11] = 10 pmol, read-out: Stomach (CCK2R-positive) uptake
[12] = 10 pmol, read-out: Tumor (CCK2R-positive) uptake

For `CCCC[C@H](NC(=O)[C@H](Cc1c[nH]c2ccccc12)NC(=O)CNC(=O)[C@H](Cc1ccc(O)cc1)NC(=O)[C@H](C)NC(=O)[C@@H](CCC(=O)O)NC(=O)[C@@H](CCC(=O)O)NC(=O)[C@@H](CCC(=O)O)NC(=O)[C@@H](CCC(=O)O)NC(=O)[C@@H](CCC(=O)O)NC(=O)[C@@H](CCC(=O)O)NC(=O)CN1CCN(CC(=O)O)CCN(CC(=O)O)CCN(CC(=O)O)CC1)C(=O)N[C@@H](CC(=O)O)C(=O)N[C@@H](Cc1ccccc1)C(N)=O` [PP-F11N, DOTA-(DGlu)6-Ala-Tyr-Gly-Trp-Nle-Asp-Phe-NH2], the “Intact Compound In Vitro (%), 24 h, Blood Plasma” value [1] is listed as 98.1 ± 0.9%, the “Tumor (CCK2R-positive) uptake” value ([2]; 1 h p.i.) is listed as 6.92 ± 2.21 % i.A./g and the “Tumor (CCK2R-positive) uptake” value ([2]; 4 h p.i.) is listed as 4.07 ± 1.40 % i.A./g. For the same compound, the “Tumor (CCK2R-positive) uptake” value ([2]; 24 h p.i.) was 2.73 ± 0.84 % i.A./g and 2.7 ± 0.8 % i.A./g, the tissue uptake at 1 h ([3]; 10 pmol, read-out: Bone uptake) was 0.88 %ID/g and the tissue uptake at 1 h [3, 5] was 0.08 %ID/g. For the same compound, the tissue uptake at 1 h [3, 6] was 0.12 %ID/g, the tissue uptake at 1 h [3, 7] was 2.75 %ID/g and the tissue uptake at 1 h [3, 8] was 0.09 %ID/g. It also gave a tissue uptake at 1 h ([3]; 10 pmol, read-out: Lung uptake) of 0.16 %ID/g, a tissue uptake at 1 h ([3]; 10 pmol, read-out: Muscle uptake) of 0.13 %ID/g and a tissue uptake at 1 h [3, 9] of 0.18 %ID/g. For the same compound, the tissue uptake at 1 h [3, 10] was 0.06 %ID/g, the tissue uptake at 1 h [3, 11] was 1.02 %ID/g and the tissue uptake at 1 h [3, 12] was 6.92 %ID/g. For the same compound, the tissue uptake at 4 h ([3]; 10 pmol, 4 h (blocked), excess minigastrin, read-out: Bone uptake) was 0.15 %ID/g, the tissue uptake at 4 h ([3]; 10 pmol, 4 h (blocked), excess minigastrin, read-out: Muscle uptake) was 0.01 %ID/g and the tissue uptake at 4 h ([3]; 10 pmol, 4 h p.i., read-out: Blood uptake) was 0.01 %ID/g. It also gave a tissue uptake at 4 h ([3]; 10 pmol, 4 h p.i., read-out: Bone uptake) of 0.22 %ID/g, a tissue uptake at 4 h ([3]; 10 pmol, 4 h p.i., read-out: Heart uptake) of 0.03 %ID/g and a tissue uptake at 4 h ([3]; 10 pmol, 4 h p.i., read-out: Intestines uptake) of 0.05 %ID/g. The tissue uptake at 4 h ([3]; 10 pmol, 4 h p.i., read-out: Kidneys uptake) was 2.42 %ID/g, the tissue uptake at 4 h ([3]; 10 pmol, 4 h p.i., read-out: Liver uptake) was 0.06 %ID/g and the tissue uptake at 4 h ([3]; 10 pmol, 4 h p.i., read-out: Lung uptake) was 0.03 %ID/g. The tissue uptake at 4 h ([3]; 10 pmol, 4 h p.i., read-out: Muscle uptake) was 0.02 %ID/g, the tissue uptake at 4 h ([3]; 10 pmol, 4 h p.i., read-out: Pancreas uptake) was 0.09 %ID/g and the tissue uptake at 4 h ([3]; 10 pmol, 4 h p.i., read-out: Spleen uptake) was 0.03 %ID/g. For the same compound, the tissue uptake at 4 h ([3]; 10 pmol, 4 h p.i., read-out: Stomach (CCK2R-positive) uptake) was 1.04 %ID/g, the tissue uptake at 4 h ([3]; 10 pmol, 4 h p.i., read-out: Tumor (CCK2R-positive) uptake) was 4.07 %ID/g and the tissue uptake at 24 h ([3]; 10 pmol, read-out: Bone uptake) was 0.1 %ID/g. It also gave a tissue uptake at 24 h [3, 5] of 0.01 %ID/g, a tissue uptake at 24 h [3, 6] of 0.03 %ID/g and a tissue uptake at 24 h [3, 7] of 1.72 %ID/g. For the same compound, the tissue uptake at 24 h [3, 8] was 0.04 %ID/g, the tissue uptake at 24 h ([3]; 10 pmol, read-out: Lung uptake) was 0.02 %ID/g and the tissue uptake at 24 h [3, 9] was 0.08 %ID/g. For the same compound, the tissue uptake at 24 h [3, 10] was 0.02 %ID/g, the tissue uptake at 24 h [3, 11] was 0.67 %ID/g and the tissue uptake at 24 h [3, 12] was 2.73 %ID/g. The tissue uptake at 4 h ([3]; 4 h (blocked), excess minigastrin, read-out: Blood uptake) was 0.01 %ID/g, the tissue uptake at 4 h ([3]; 4 h (blocked), excess minigastrin, read-out: Heart uptake) was 0.02 %ID/g and the tissue uptake at 4 h ([3]; 4 h (blocked), excess minigastrin, read-out: Intestines uptake) was 0.03 %ID/g. The tissue uptake at 4 h ([3]; 4 h (blocked), excess minigastrin, read-out: Kidneys uptake) was 2.57 %ID/g, the tissue uptake at 4 h ([3]; 4 h (blocked), excess minigastrin, read-out: Liver uptake) was 0.07 %ID/g and the tissue uptake at 4 h ([3]; 4 h (blocked), excess minigastrin, read-out: Lung uptake) was 0.04 %ID/g. For the same compound, the tissue uptake at 4 h ([3]; 4 h (blocked), excess minigastrin, read-out: Pancreas uptake) was 0.04 %ID/g, the tissue uptake at 4 h ([3]; 4 h (blocked), excess minigastrin, read-out: Spleen uptake) was 0.04 %ID/g and the tissue uptake at 4 h ([3]; 4 h (blocked), excess minigastrin, read-out: Stomach (CCK2R-positive) uptake) was 0.12 %ID/g. The tissue uptake at 4 h ([3]; 4 h (blocked), excess minigastrin, read-out: Tumor (CCK2R-positive) uptake) was 1.3 %ID/g and the “Intact Compound In Vivo (%), 10 min” value [4] was 43% and 43.1 ± 2.7%.
